Data from publication PMC9547493 (2020).
Bridge positions count the residues as written; N and C are the ends. Ends that are not written are not given here. γCp(RSS) = N-terminal (R,S,S)-cyclopropane γ-amino acid; γCp(SRR) = N-terminal (S,R,R)-cyclopropane γ-amino acid

Key:
[1] = molecular target: T1, CeiPGM-γCp(SRR) (synthetic construct, thioether N-14); assay: SPR
T1 chain: {γCp(SRR)}-FSISGIEWNGPEIC

[2] = molecular target: T2, CeiPGM-γCp(RSS) (synthetic construct, thioether N-14); assay: SPR
T2 chain: {γCp(RSS)}-FSISGIEWNGPEIC

B1: CeiPGM (cofactor-independent phosphoglycerate mutase) (protein)
chain: MFVALGAQIYRQYFGRRGMAMANNSSVANKVCLIVIDGWGVSEDPYGNAILNAQTPVMDKLCSGNWAQIEAHGLHVGLPEGLMGNSEVGHLNIGAGRVIYQDIVRINLAVKNNKFVTNESLVDACDRAKNGNGRLHLAGLVSDGGVHSHIDHMFALVKAIKELGVPELYLHFYGDGRDTSPNSGVGFLEQTLEFLEKTTGYGKLATVVGRYYAMDRDNRWERINVAYEAMIGGVGETSDEAGVVEVVRKRYAADETDEFLKPIILQGEKGRVQNDDTIIFFDYRADRMREISAAMGMDRYKDCNSKLAHPSNLQVYGMTQYKAEFPFKSLFPPASNKNVLAEWLAEQKVSQFHCAETEKYAHVTFFFNGGLEKQFEGEERCLVPSPKVATYDLQPEMSAAGVADKMIEQLEAGTHPFIMCNFAPPDMVGHTGVYEAAVKACEATDIAIGRIYEATQKHGYSLMVTADHGNAEKMKAPDGGKHTAHTCYRVPLTLSHPGFKFVDPADRHPALCDVAPTVLAIMGLPQPAEMTGVSIVQKI
In the case of B1, the Kd [1] is reported as 0.8 nM and the Kd [2] is reported as 0.3 nM.
